Measurements: article PMC9309405, “The integration of AlphaFold-predicted and crystal structures of human trans-3-hydroxy-L-proline dehydratase reveals a regulatory catalytic mechanism” (Computational and Structural Biotechnology Journal, 2022)

Substrate: O=C(O)[C@H]1NCC[C@@H]1O
Test: purified protein
Type: biochemical, Homo sapiens
Conditions: oxidizing conditions, without DTT; 1xPBS; substrate-inhibition fit; with 1 mM DTT a separate lower KM is reported; substrate named only hydroxyproline in methods

B1: human trans-3-Hydroxy-L-proline dehydratase (hL3HYPDH) (Homo sapiens) (protein)
chain: MESALAVPRLPPHDPGTPVLSVVDMHTGGEPLRIVLAGCPEVSGPTLLAKRRYMRQHLDHVRRRLMFEPRGHRDMYGAVLVPSELPDAHLGVLFLHNEGYSSMCGHAVLALGRFALDFGLVPAPPAGTREARVNIHCPCGLVTAFVACEDGRSHGPVRFHSVPAFVLATDLMVDVPGHGKVMVDIAYGGAFYAFVTAEKLGLDICSAKTRDLVDAASAVTEAVKAQFKINHPDSEDLAFLYGTILTDGKDAYTKEPTTNICVFADEQVDRSPTGSGVTARIALQYHKGLLELNQMRAFKSSATGSVFTGKAVREAKCGDFKAVIVEVSGQAHYTGTASFIIEDDDPLRDGFLLK
notes: recombinant, cloned in pET28b, E. coli BL21(DE3), His-Trap then Superdex 200; homodimer; crystal model residues 4-354; Cys104-Cys137 intramolecular disulphide
  Km: 416.7 µM
